Data as given in article PMC5779228.

Target: His-tagged dimeric ϕO11 Dut (S. aureus phage ϕO11)
Test: crystal structure; ϕO11 Dut (10 mg/ml) with 0.5 mM dUPNPP and 5 mM MgCl2; sitting drop at 21°C; 0.2 M magnesium chloride, 0.1 M Tris-HCl pH 8.5, 20% PEG 8000; 2.1 Å

## His-tagged dimeric ϕO11 Dut (enzyme)
  stoichiometry N: 2
